# From US20170298119A1
# Target: ZIKV strain MR766 (E protein on infectious virus) (Zika virus strain MR766) (UniProt Q32ZE1)
# Test: cell-based or functional assay
row,Binder,in vitro neutralization EC50 (foci counted on Vero cells) [µg/mL]
1,"ZC1 (antibody, V domains shown) VH: QVQLVQSGAEVKKPGASVKVSCKASGYTFTSYGISWVRQATGQGLEWMGVIYPRSGNTYYAEKFRGRVTMTADKSISTAYMELSSLRSEDTAVYYCARENYGSVYWGQGTLVTVSS VL: EIVMTQSPATLSVSPGERATLSCRASQSVGTAVAWYQQKPGQAPRLLIYSASNRYTGIPARFSGSGSGTEFTLTISSLQSEDFADYFCQQFYNYPFTFGGGTKVEIK",< 0.02
2,"ZC9 (antibody, V domains shown) VH: QVQLVQSGAEVKKPGASVKVSCKASGYTFTSYGISWVRQAPGQGLEWMGVIYPRSGNTYYAQKLQGRVTMTTDTSTSTAYMELRSLRSDDTAVYYCARENYGSVYWGQGTLVTVSS VL: EIVMTQSPATLSVSPGERATLSCRASQSVGTAVAWYQQKPGQAPRLLIYSASNRYTGIPARFSGSGSGTEFTLTISSLQSEDFADYFCQQFYNYPFTFGGGTKVEIK",< 0.02
3,"ZC5 (antibody, V domains shown) VH: QVQLVQSGAEVKKPGASVKVSCKASGYSFTTYGISWVRQAPGQGLEWMGVIYPRSGNTYYAQKLQGRVTMTTDTSTSTAYMELRSLRSDDTAVYYCARENYGSVYWGQGTLVTVSS VL: EIVMTQSPATLSVSPGERATLSCRASQSVGTAVAWYQQKPGQAPRLLIYSASNRYTGIPARFSGSGSGTEFTLTISSLQSEDFADYFCQQFYNYPFTFGGGTKVEIK",< 0.02
4,"ZC6 (antibody, V domains shown) VH: QVQLVQSGAEVKKPGASVKVSCKASGYSFTTYGISWVRQAPGQGLEWMGVIYPRSGNTYYAQKLQGRVTMTTDTSTSTAYMELRSLRSDDTAVYYCARENYGSVYWGQGTLVTVSS VL: DIQMTQSPSSLSASVGDRVTITCKASQSVGTAVAWYQQKPGKAPKLLIYSASNRYTGVPSRFSGSGSGTDFTLTISSLQPEDFATYFCQQFSNYPFTFGGGTKVEIK",< 0.02
